According to the supplement of paper PMC9233669:
Variants at the floor of the assay were thinned out.

Legend:
biotinyl-Trp-oxazolone = assay: self-aminoacylation, catalytic enhancement (BWO) (fold over background); higher = more active; k-Seq, kA / k0A0; sequences stand for … in GGGAAUGGAUCCACAUCUACGAAUUC…UUCACUGCAGACUUGACGAAGCUG
How it was run: (§1)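 Each biotinyl-aminoacyl-oxazolone, at 2–1250 μM, was incubated with mutagenized RNA pools (0.43 μM) carrying a 21-nt variable region. The 50 μL reactions contained HEPES/NaCl/KCl/MgCl2/CaCl2 buffer with 5% acetonitrile at pH 6.9–7.0 and ran for 90 minutes at room temperature. After streptavidin capture, RNA was measured by qPCR in triplicate and by Illumina sequencing, and catalytic enhancement was calculated as median kA over the uncatalyzed rate from a pseudo-first-order fit of per-sequence fraction reacted.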

biotinyl-Val-oxazolone = assay: self-aminoacylation, catalytic enhancement (BVO) (fold over background); higher = more active; k-Seq, kA / k0A0; sequences stand for … in GGGAAUGGAUCCACAUCUACGAAUUC…UUCACUGCAGACUUGACGAAGCUG
How it was run: as §1

biotinyl-Leu-oxazolone = assay: self-aminoacylation, catalytic enhancement (BLO) (fold over background); higher = more active; k-Seq, kA / k0A0; sequences stand for … in GGGAAUGGAUCCACAUCUACGAAUUC…UUCACUGCAGACUUGACGAAGCUG
How it was run: as §1

biotinyl-Met-oxazolone = assay: self-aminoacylation, catalytic enhancement (BMO) (fold over background); higher = more active; k-Seq, kA / k0A0; sequences stand for … in GGGAAUGGAUCCACAUCUACGAAUUC…UUCACUGCAGACUUGACGAAGCUG
How it was run: as §1

biotinyl-Phe-oxazolone = assay: self-aminoacylation, catalytic enhancement (BFO) (fold over background); higher = more active; k-Seq, kA / k0A0; sequences stand for … in GGGAAUGGAUCCACAUCUACGAAUUC…UUCACUGCAGACUUGACGAAGCUG
How it was run: as §1

biotinyl-Ile-oxazolone = assay: self-aminoacylation, catalytic enhancement (BIO) (fold over background); higher = more active; k-Seq, kA / k0A0; sequences stand for … in GGGAAUGGAUCCACAUCUACGAAUUC…UUCACUGCAGACUUGACGAAGCUG
How it was run: as §1

| Sequence | self-aminoacylation (biotinyl-Trp-oxazolone) | self-aminoacylation (biotinyl-Val-oxazolone) | self-aminoacylation (biotinyl-Leu-oxazolone) | self-aminoacylation (biotinyl-Met-oxazolone) | self-aminoacylation (biotinyl-Phe-oxazolone) | self-aminoacylation (biotinyl-Ile-oxazolone) |
| --- | --- | --- | --- | --- | --- | --- |
| CUUCUCCUAGGUCAUCGGGUG [Fam2.2 aminoacylation ribozyme variant] | 6.52 | 4.48 | 8.84 | 6.43 | 35.6 | 4.42 |
| CUUACCCGGGUCAUCGAGUGA [Fam2.1 aminoacylation ribozyme variant] | 7.34 | 3.48 | 7.48 | 5.92 | 36.5 | 3.03 |
| CCACACUUCAAGCAAGCGGUA [Fam1B.1 aminoacylation ribozyme variant] | 0.921 | 1.2 | 1.13 | 1.02 | 0.741 | 1.39 |
| AAGUUUUAUAAUAGUCGCAAG [Fam3.1 aminoacylation ribozyme variant] | 1.99 | 1.64 | 1.61 | 1.77 | 3.02 | 1.72 |
| AUUCACCUAAGUCACCGGGUG [Fam2.2 aminoacylation ribozyme variant] | 5.67 | 4.88 | 8.36 | 7.03 | 53.8 | 4.72 |
| AUUCACCUAUGGCAUCGGGUG [Fam2.2 aminoacylation ribozyme variant] | 2.25 | 1.94 | 2.84 | 2.41 | 11.9 | 1.96 |
| AUUACCCGGGUAAUCGAGUGA [Fam2.1 aminoacylation ribozyme variant] | 13.2 | 5.84 | 13.9 | 12.1 | 81 | 5.16 |
| CUACUUCAAAAAAUCGGCCUG [Fam1A.1 aminoacylation ribozyme variant] | 13.1 | 1.56 | 1.7 | 1.73 | 15.3 | 1.9 |
| AUUCGCCCAGGUCAUCGGGUG [Fam2.2 aminoacylation ribozyme variant] | 5.2 | 3.96 | 6.46 | 4.75 | 42 | 4.14 |
| AUUCACCUAGGUCAACGGGUC [Fam2.2 aminoacylation ribozyme variant] | 0.902 | 1.07 | 0.807 | 0.915 | 0.507 | 0.899 |
| CUACUCCAAACAAUCUGUCUG [Fam1A.1 aminoacylation ribozyme variant] | 0.506 | 0.766 | 0.716 | 0.578 | 0.973 | 0.799 |
| AUUCACCUAGGUCAUCGCGUG [Fam2.2 aminoacylation ribozyme variant] | 11.5 | 7.35 | 17.4 | 13 | 100 | 7.1 |
| ACUCACCUAGGUCUUCGGGUG [Fam2.2 aminoacylation ribozyme variant] | 6.33 | 4.96 | 6.01 | 4.6 | 29.7 | 4.2 |
| AUUACCUUGGUCAUCGAGUGG [Fam2.1 aminoacylation ribozyme variant] | 0.873 | 1.45 | 2.13 | 2.08 | 1.64 | 1.67 |
| CAAGUUCAAACAAUCGGUCUG [Fam1A.1 aminoacylation ribozyme variant] | 4.9 | 0.969 | 1.02 | 0.954 | 6.99 | 0.983 |
| CUACUUGAAACAAUCGGACUG [Fam1A.1 aminoacylation ribozyme variant] | 0.651 | 0.786 | 0.944 | 0.782 | 0.551 | 0.922 |
| CUACUUCAACCAAUCGGGCUG [Fam1A.1 aminoacylation ribozyme variant] | 6.74 | 1.22 | 1.68 | 1.24 | 7.63 | 1.71 |
| AUUAGACUGGUCAUCGAGUGA [Fam2.1 aminoacylation ribozyme variant] | 4.81 | 2.56 | 3.73 | 4.4 | 7.88 | 3 |
| AUUCACCUGGGUCCUCGGGUG [Fam2.2 aminoacylation ribozyme variant] | 6.22 | 4.67 | 7.74 | 6.49 | 39 | 4.33 |
| AUUAACCUAGGUCAACGGGUG [Fam2.2 aminoacylation ribozyme variant] | 3 | 1.89 | 3.59 | 3.36 | 20.5 | 2.13 |
| CGUACCCUGGUCAUCGAGUGA [Fam2.1 aminoacylation ribozyme variant] | 10.9 | 5.62 | 9.81 | 8.76 | 10.1 | 4.66 |
| AUACUUCAAACAAGCGGUCUG [Fam1A.1 aminoacylation ribozyme variant] | 0.889 | 0.986 | 1.01 | 0.884 | 0.83 | 0.977 |
| AUAACCAUGGUCAUCGAGUGA [Fam2.1 aminoacylation ribozyme variant] | 8.43 | 3.7 | 7.68 | 7.91 | 23.8 | 3.91 |
| AAGUUUGGUAAUCGUCGCAAG [Fam3.1 aminoacylation ribozyme variant] | 1.52 | 1.32 | 1.33 | 1.49 | 1.07 | 1.39 |
| AGUCACCUAGGUUAUCGGGUG [Fam2.2 aminoacylation ribozyme variant] | 6.62 | 4.56 | 4.68 | 4.56 | 32.2 | 4.39 |
| ACACACUUCAAGCAAUCGUUC [Fam1B.1 aminoacylation ribozyme variant] | 1.21 | 1.23 | 0.787 | 0.825 | 1.43 | 1.02 |

| Sequence | self-aminoacylation (biotinyl-Trp-oxazolone) | self-aminoacylation (biotinyl-Val-oxazolone) | self-aminoacylation (biotinyl-Leu-oxazolone) | self-aminoacylation (biotinyl-Met-oxazolone) | self-aminoacylation (biotinyl-Phe-oxazolone) | self-aminoacylation (biotinyl-Ile-oxazolone) |
| --- | --- | --- | --- | --- | --- | --- |
| AUUCACCUGGGUCAUCAGGUG [Fam2.2 aminoacylation ribozyme variant] | 1.36 | 1.92 | 1.67 | 1.48 | 6.12 | 1.52 |
| CUGCUUCAAACAAUCGGUCUG [Fam1A.1 aminoacylation ribozyme variant] | 53.5 | 1.35 | 2.83 | 1.72 | 125 | 1.29 |
| AUUCACCUACGUCAUCGGGUC [Fam2.2 aminoacylation ribozyme variant] | 0.963 | 1.21 | 1.36 | 1.25 | 4.31 | 1.17 |
| AUUACCCUGGUCCUCUAGUGA [Fam2.1 aminoacylation ribozyme variant] | 12.3 | 5.33 | 10.6 | 9.46 | 79.1 | 4.37 |
| AUACACCUAGGUCAUGGGGUG [Fam2.2 aminoacylation ribozyme variant] | 3.4 | 2.26 | 3.49 | 3.51 | 18.6 | 2.52 |
| AAGUUUGCUAAUAAUCGCAAA [Fam3.1 aminoacylation ribozyme variant] | 1.02 | 1.14 | 1.09 | 1.14 | 0.86 | 1.2 |
| CCACACAUCAGGCAAUCGGUC [Fam1B.1 aminoacylation ribozyme variant] | 0.806 | 1.3 | 1.12 | 1.03 | 1.15 | 1.25 |
| CUACUUCAAACAACCGGUCGG [Fam1A.1 aminoacylation ribozyme variant] | 0.808 | 1.08 | 1.24 | 1.05 | 1.17 | 0.978 |
| CCACACAUCAAGCAGUCGGUC [Fam1B.1 aminoacylation ribozyme variant] | 0.457 | 1.05 | 0.799 | 0.686 | 0.847 | 0.93 |
| AUUCCCCUAGGUCAUCGGUUG [Fam2.2 aminoacylation ribozyme variant] | 2.16 | 3.38 | 3.94 | 3.19 | 11.7 | 3.4 |
| AACUUUGCUAAUCGUCGCAAG [Fam3.1 aminoacylation ribozyme variant] | 2.15 | 1.89 | 2.66 | 2.21 | 9.09 | 1.93 |
| AUACUUCAAACAAUCGAUCUG [Fam1A.1 aminoacylation ribozyme variant] | 0.648 | 0.59 | 0.485 | 0.535 | 0.915 | 0.684 |
| CUACUUGAGACAAUCGGUCUG [Fam1A.1 aminoacylation ribozyme variant] | 1.1 | 1.01 | 0.962 | 0.94 | 0.89 | 0.884 |
| AAGUUUACUAAUAGUCGCAAG [Fam3.1 aminoacylation ribozyme variant] | 1.5 | 1.32 | 1.3 | 1.23 | 2.7 | 1.4 |
| CUACUUCCAACAAUUGGUCUG [Fam1A.1 aminoacylation ribozyme variant] | 0.536 | 0.839 | 0.776 | 0.718 | 0.55 | 0.817 |
| AUUCACGUAGGUCUUCGGGUG [Fam2.2 aminoacylation ribozyme variant] | 4.88 | 5.24 | 4.82 | 4.21 | 40.1 | 3.86 |
| GUUACCCUGGUCAUGGAGUGA [Fam2.1 aminoacylation ribozyme variant] | 7.15 | 3.36 | 5.89 | 4.85 | 36.2 | 3.51 |
| AUUCACCCAGCUCAUCGGGUG [Fam2.2 aminoacylation ribozyme variant] | – | 2.19 | 2.43 | 2.49 | 6.9 | 2.73 |
| AUUCACCUGGGUCAUCGGCUG [Fam2.2 aminoacylation ribozyme variant] | – | 2.54 | 2.27 | – | 8.1 | 2.01 |
| CCAGACUUCAAGCAAUCGGGC [Fam1B.1 aminoacylation ribozyme variant] | 3.72 | 3.13 | 2.69 | – | – | 2.71 |
| CCCCACUUCGAGCAAUCGGUC [Fam1B.1 aminoacylation ribozyme variant] | 4.05 | 2.51 | 2.16 | – | 5.48 | 2.2 |
| CCACACUUCAAGCAGUCGGGC [Fam1B.1 aminoacylation ribozyme variant] | – | 2.36 | 2.19 | 2.5 | – | 2.15 |
| CCACACUUCAAGCAUUCCGUC [Fam1B.1 aminoacylation ribozyme variant] | 3.14 | 3 | 2.51 | 2.55 | – | 3.19 |
| CAACUUCAAACAAUCGGGCUG [Fam1A.1 aminoacylation ribozyme variant] | 20.1 | 2.25 | 2.58 | – | 23.8 | 2.18 |
| CUACGUCAAACAAUCGGCCUG [Fam1A.1 aminoacylation ribozyme variant] | 4.49 | 2.84 | 2.69 | 2.29 | – | 2.56 |
| CUUCACCUAGGUCAUCGGGCG [Fam2.2 aminoacylation ribozyme variant] | 4.39 | 2.97 | 2.75 | 3.57 | – | 2.36 |
